# Experimental data from article PMC9352680, “A comprehensive thermodynamic model for RNA binding by the Saccharomyces cerevisiae Pumilio protein PUF4”.
# T1: PUF4 RNA-binding domain (Saccharomyces cerevisiae, UniProt P25339 537-888)
# T1 sequence: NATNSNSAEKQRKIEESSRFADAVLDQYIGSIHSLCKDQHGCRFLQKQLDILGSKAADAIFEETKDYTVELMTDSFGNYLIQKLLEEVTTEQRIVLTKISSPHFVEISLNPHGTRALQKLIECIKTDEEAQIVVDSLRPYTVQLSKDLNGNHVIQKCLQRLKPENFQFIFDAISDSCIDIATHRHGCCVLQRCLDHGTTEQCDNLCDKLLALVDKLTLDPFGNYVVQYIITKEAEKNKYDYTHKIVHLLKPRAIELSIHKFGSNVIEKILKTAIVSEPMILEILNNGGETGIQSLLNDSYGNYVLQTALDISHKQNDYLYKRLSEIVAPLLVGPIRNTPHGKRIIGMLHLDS
# Target: T1, PUF4 RNA-binding domain
# Assay: Mg; RNA-MaP; 20 mM Na-HEPES pH 7.4, 30 mM KOAc, 0.75 mM MgCl2, 0.1% Tween-20, 5% glycerol, 0.1 mg/mL BSA, 2 mM DTT; 25 C; 0.0125-409.6 nM protein
# Settings: tags: N-His6-TEV cleaved; C-SNAP kept, Cy3B-labelled; label: tethered on chip by stalled RNA polymerase
row,Binder,Kd [nM]
1,UCUCUUUCACACUAUAUUUCUCUU (ssRNA) [Id_ii_S1_P3E.4_K3.3_C3.2_[C-2T]_[T-1C]_H3.3_A3.1_F3.1_T3.2_[A10T]],> 2300
2,UCUCUUUUUAUAGUAUCUCUU (ssRNA) [Ib_S1_P4E.1_K4.1_C4.1_H4.1_[G2T]_A4.1_[T7G]_F4.1_T4.1],> 2300
3,UCUCUUGUACACUAUAUUUCUCUU (ssRNA) [Id_ii_S1_P3E.4_K3.3_C3.2_[C-2G]_H3.3_A3.1_F3.1_T3.2_[A10T]],0.901
4,UCUCUUAGACACUAUAUUUCUCUU (ssRNA) [Id_ii_S1_P3E.4_K3.3_C3.2_[C-2A]_[T-1G]_H3.3_A3.1_F3.1_T3.2_[A10T]],> 2300
5,UCUCUUCUUAUAUAUAAAUCUCUU (ssRNA) [Id_ii_S1_P3E.3_K3.2_C3.2_H3.2_A3.1_F3.1_T3.2_[T9A]],1180
6,UCUCUUUAUAUUUUAUCUCUU (ssRNA) [Ib_S1_P4E.1_K4.1_C4.1_H4.1_[G2A]_A4.1_[A6T]_F4.1_T4.1],163
7,UCUCUUGCACACUAUACCUCUCUU (ssRNA) [Id_ii_S1_P3E.4_K3.3_C3.2_[C-2G]_[T-1C]_H3.3_A3.1_F3.1_T3.2_[T9C]_[A10C]],278
8,UCUCUUAAACACUAUAUUUCUCUU (ssRNA) [Id_ii_S1_P3E.4_K3.3_C3.2_[C-2A]_[T-1A]_H3.3_A3.1_F3.1_T3.2_[A10T]],> 2300
9,UCUCUUAAACACUAUAGCUCUCUU (ssRNA) [Id_ii_S1_P3E.4_K3.3_C3.2_[C-2A]_[T-1A]_H3.3_A3.1_F3.1_T3.2_[T9G]_[A10C]],> 2300
10,UCUCUUGUACACUAUAACUCUCUU (ssRNA) [Id_ii_S1_P3E.4_K3.3_C3.2_[C-2G]_H3.3_A3.1_F3.1_T3.2_[T9A]_[A10C]],1.63
11,UCUCUUUCACACUAUAAAUCUCUU (ssRNA) [Id_ii_S1_P3E.4_K3.3_C3.2_[C-2T]_[T-1C]_H3.3_A3.1_F3.1_T3.2_[T9A]],> 2300
12,UCUCUUUUUAUCUUAUCUCUU (ssRNA) [Ib_S1_P4E.1_K4.1_C4.1_H4.1_[G2T]_A4.1_[A6C]_F4.1_T4.1],> 2300
13,UCUCUUUUACACUAUACAUCUCUU (ssRNA) [Id_ii_S1_P3E.4_K3.3_C3.2_[C-2T]_H3.3_A3.1_F3.1_T3.2_[T9C]],1140
14,UCUCUUAUACACUAUACCUCUCUU (ssRNA) [Id_ii_S1_P3E.4_K3.3_C3.2_[C-2A]_H3.3_A3.1_F3.1_T3.2_[T9C]_[A10C]],30.1
15,UCUCUUUUACACUAUAAUUCUCUU (ssRNA) [Id_ii_S1_P3E.4_K3.3_C3.2_[C-2T]_H3.3_A3.1_F3.1_T3.2_[T9A]_[A10T]],> 2300
16,UCUCUUCUUAUAUAUAUCUCUCUU (ssRNA) [Id_ii_S1_P3E.3_K3.2_C3.2_H3.2_A3.1_F3.1_T3.2_[A10C]],600

row,Binder,Kd [nM]
1,UCUCUUCUUAUAUAUACAUCUCUU (ssRNA) [Id_ii_S1_P3E.3_K3.2_C3.2_H3.2_A3.1_F3.1_T3.2_[T9C]],907
2,UCUCUUUAUAUGUUAUCUCUU (ssRNA) [Ib_S1_P4E.1_K4.1_C4.1_H4.1_[G2A]_A4.1_[A6G]_F4.1_T4.1],635
3,UCUCUUGCACACUAUACGUCUCUU (ssRNA) [Id_ii_S1_P3E.4_K3.3_C3.2_[C-2G]_[T-1C]_H3.3_A3.1_F3.1_T3.2_[T9C]_[A10G]],671
4,UCUCUUUUACACUAUACCUCUCUU (ssRNA) [Id_ii_S1_P3E.4_K3.3_C3.2_[C-2T]_H3.3_A3.1_F3.1_T3.2_[T9C]_[A10C]],1910
5,UCUCUUAGACACUAUAAUUCUCUU (ssRNA) [Id_ii_S1_P3E.4_K3.3_C3.2_[C-2A]_[T-1G]_H3.3_A3.1_F3.1_T3.2_[T9A]_[A10T]],> 2300
6,UCUCUUUCACACUAUAAUUCUCUU (ssRNA) [Id_ii_S1_P3E.4_K3.3_C3.2_[C-2T]_[T-1C]_H3.3_A3.1_F3.1_T3.2_[T9A]_[A10T]],> 2300
7,UCUCUUUUACACUAUAUCUCUCUU (ssRNA) [Id_ii_S1_P3E.4_K3.3_C3.2_[C-2T]_H3.3_A3.1_F3.1_T3.2_[A10C]],1380
8,UCUCUUUAUAUCUUAUCUCUU (ssRNA) [Ib_S1_P4E.1_K4.1_C4.1_H4.1_[G2A]_A4.1_[A6C]_F4.1_T4.1],672
9,UCUCUUUUACACUAUAUGUCUCUU (ssRNA) [Id_ii_S1_P3E.4_K3.3_C3.2_[C-2T]_H3.3_A3.1_F3.1_T3.2_[A10G]],2220
10,UCUCUUGCACACUAUAUUUCUCUU (ssRNA) [Id_ii_S1_P3E.4_K3.3_C3.2_[C-2G]_[T-1C]_H3.3_A3.1_F3.1_T3.2_[A10T]],94.8
11,UCUCUUUUACACUAUAGCUCUCUU (ssRNA) [Id_ii_S1_P3E.4_K3.3_C3.2_[C-2T]_H3.3_A3.1_F3.1_T3.2_[T9G]_[A10C]],> 2300
12,UCUCUUAUACACUAUAGCUCUCUU (ssRNA) [Id_ii_S1_P3E.4_K3.3_C3.2_[C-2A]_H3.3_A3.1_F3.1_T3.2_[T9G]_[A10C]],45.7
13,UCUCUUUAACACUAUACGUCUCUU (ssRNA) [Id_ii_S1_P3E.4_K3.3_C3.2_[C-2T]_[T-1A]_H3.3_A3.1_F3.1_T3.2_[T9C]_[A10G]],> 2300
14,UCUCUUCUUAUAUAUAUGUCUCUU (ssRNA) [Id_ii_S1_P3E.3_K3.2_C3.2_H3.2_A3.1_F3.1_T3.2_[A10G]],499
15,UCUCUUACACACUAUAGUUCUCUU (ssRNA) [Id_ii_S1_P3E.4_K3.3_C3.2_[C-2A]_[T-1C]_H3.3_A3.1_F3.1_T3.2_[T9G]_[A10T]],> 2300
